Measurements: patent US12479895B2, “C-terminal CDNF and MANF fragments, pharmaceutical compositions comprising same and uses thereof” (MyNeuroCure Oy, priority 2018, dated 2025)

Key:
[1] = rat, in vivo, sc
Protocol: CDNF, C-CDNF and C-MANF were iodinated with ^125I-Na using the lactoperoxidase method. The protein in question was dissolved in 30 μl of 0.25 M phosphate buffer, pH 7.5, and mixed with ^125I-Na (1 mCi/2.8 μl; 1 mCi=37 mBq; GE Healthcare). The reaction was started by adding lactoperoxidase 10 μl of 50 μg/ml and 0.05% H2O2. The mixture was incubated at room temperature for 20 min and the reaction was stopped by adding 3 volumes of 0.1 M phosphate buffer, pH 7.5, containing 0.1 M NaI, 0.42 M NaCl, and then 25 μl of 2.5% BSA was added. Free iodine and iodinated protein were separated by gel filtration on Sephadex G-25 columns (PM10; GE Healthcare). For column equilibrium and elution, 0.1 M phosphate buffer, pH 7.5, with 1% BSA was used. The iodinated growth factors were sometimes concentrated by using YM-10 Centricon columns (Millipore). The specific activity of ^125I-labeled CDNF, C-CDNF and C-MANF was measured on the Wizard 3 1480 Automatic Gamma Counter (Perkin Elmer, Wallac) and was about 10^8 cpm/μg protein. The labelled protein were kept at 4° C. and used within 3 weeks after labelling.
^125I-CDNF, ^125I C-CDNF or ^125I C-MANF (all proteins at 10^6 cpm in 10 μl) were injected subcutaneously to adult male Wistar rats. […] Radioactivity was analyzed in different brain regions by gamma counter. […] The differences between groups were analyzed ANOVA followed by Tukey-Kramers post hoc test.

[2] = tested on: mouse beta cell proliferation; test: Beta cell proliferation assay; format: cell-based; conditions: mouse islets cultured in vitro for 5 days
Protocol: Islets from female, virgin 8 weeks old C57bl6Rcc mice were isolated. Islets were recovered o/n in growth medium and the next day equal numbers of islets/well (70/well) were treated for 5 days with placental lactogen (PL 500 ng/ml), C-MANF, or MANF. Half of the medium was changed daily to fresh medium with growth factors. Edu, a nucleoside analog alternatively to BrdU (Click-iT® Edu proliferation kit, Invitrogen) was added 48 hrs prior to islet harvesting. Islets were broken with trypsin and centrifuged onto glass slides in cytocentrifuge. Cells were fixed after cytospins and proliferating cells stained with Click-iT AlexaFluor azide color reagent, followed by insulin staining (guinea-pig 1:200, Abcam, Cambridge, UK) o/n at +4° C. to detect beta cells. Cells were washed and stained with secondary antibodies conjugated with Alexa Fluor® 488 (1:400, Molecular Probes, Life Technologies, CA, USA). […] Twelve images (10× magnification) were acquired with Fluorescence Zeiss Axiolmager M2 482 epifluorescence microscope equipped with 40×/Plan-Apochromat/0.95 Corr M27 and 63×/Plan-Apochromat/1.40 Oil/M27 and 483 AxioCam HRm camera using AxioVision4 software and analysed by Image Pro Plus software (Media Cybernetics, Bethesda, MD, USA) to quantify number of DAPI-positive nuclei. The relative numbers of proliferating beta cells were quantified and compared to wells of three to five repeats/treatment.

dopamine neurons = test: Survival of TH-positive dopamine neurons in dissociated midbrain floor cultures; format: cell-based, mouse; conditions: added to the culture medium, 5 days, TH-positive neurons counted
Procedure, shortened: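 Dissociated E13.5 NMRI mouse midbrain floor neurons grown five days in DMEM/F12 with N2, with polypeptides at a range of concentrations, GDNF (100 ng/ml), or nothing. TH-immunopositive neurons were counted by imaging. Values are a percentage of GDNF-maintained TH-positive neurons, as mean ± SEM from at least three independent cultures.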

B1: KYDKQIDLSTVDLKKLRVKELKKILDDWGETCKGCAEKSDYIRKINELMPKYAPKAASARTDL (protein, listed as Homo sapiens)
chain: KYDKQIDLSTVDLKKLRVKELKKILDDWGETCKGCAEKSDYIRKINELMPKYAPKAASARTDL
blood-brain-barrier penetration [1]: capable of penetrating | mouse beta cell proliferation (incorporation of Click EdU) [2]: stimulates | protection of dopaminergic neurons in culture (result in words) (dopamine neurons): protects | protection of dopaminergic neurons in culture (result in words) (dopamine neurons; listed as C-terminal MANF fragment): potently protected
